First the molecules themselves.
B1: WWC1 (KIBRA) LC8 binding motif peptide, start 278 (peptide)
chain: KQYLDVSSQTD
modifications: core 278-285 printed; S1 Table prints the 11-mer KQYLDVSSQTD starting at 275; termini chemistry not stated
B2: WWC3 LC8 binding motif peptide, start 867 (peptide)
chain: PLKVDKETNTE
modifications: printed start 867 appears to be in older 1092-aa numbering (current entry +124, so core 991-998); 11-mer assumed to add 3 N-terminal residues, as in the S1 Table motif format
B3: WWC2 LC8 binding motif peptide, start 282 (peptide)
chain: RQTLDAGSQTS
modifications: core 282-289 printed; 11-mer assumed to add 3 N-terminal residues, as in the S1 Table motif format; termini chemistry not stated
B4: AMOTL2 LC8 binding motif peptide, start 724 (peptide)
chain: HGSRDGSTQTE
modifications: core 724-731 printed; 11-mer assumed to add 3 N-terminal residues, as in the S1 Table motif format; termini chemistry not stated
B5: WWC2 LC8 binding motif peptide, start 962 (peptide)
chain: PTLVDKETNTD
modifications: core 962-969 printed; 11-mer assumed to add 3 N-terminal residues, as in the S1 Table motif format; termini chemistry not stated
B6: AMOTL1 LC8 binding motif peptide, start 873 (peptide)
chain: TGSKDSSTQTD
modifications: core 873-880 printed; 11-mer assumed to add 3 N-terminal residues, as in the S1 Table motif format; termini chemistry not stated
B7: AMOT LC8 binding motif peptide, start 860 (peptide)
chain: TGSRDCSTQTE
modifications: core 860-867 printed; 11-mer assumed to add 3 N-terminal residues, as in the S1 Table motif format; termini chemistry not stated
B8: WWC1 (KIBRA) LC8 binding motif peptide, start 887 (peptide)
chain: ALKVDKETNTE
modifications: core 887-894 printed; 11-mer assumed to add 3 N-terminal residues, as in the S1 Table motif format; termini chemistry not stated
B9: WWC3 LC8 binding motif peptide, start 208 (peptide)
chain: QQFCDAGSQTD
modifications: printed start 208 appears to be in older 1092-aa numbering (current entry +124, so core 332-339); 11-mer assumed to add 3 N-terminal residues, as in the S1 Table motif format

Sequence of LC8 dynein light chain (DYNLL2), full-length, His6-tagged (Q96FJ2 whole entry, one chain of several): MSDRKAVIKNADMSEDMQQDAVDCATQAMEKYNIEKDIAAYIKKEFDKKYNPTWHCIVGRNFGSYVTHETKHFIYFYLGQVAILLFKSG

This experiment has as its target LC8 dynein light chain (DYNLL2), full-length, His6-tagged (human (by the printed accession Q96FJ2), UniProt Q96FJ2 1-89). The experiment can be described thus: SPR; His6-LC8 immobilised on Ni2+-NTA HTG sensor chip (ProteOn XPR36) at three densities (1200, 900, 600 RU); peptides injected at five concentrations, 60 ul/min; 20 mM Hepes, 150 mM NaCl, 0.05% Tween-20, 0.1 mM TCEP, 50 uM EDTA, pH 7.5; 1:1 Langmuir global fit; apparent Kd, mean of kinetic and equilibrium analysis. Conditions: both partners purified.
With B1, the Kd stood at 0.45 µM.

For the molecule B2, the Kd is 3.5 µM.

As to B3, the Kd came to 32.7 µM.

On to B4, for which the Kd came out at 1.98 µM.

On to B5, for which the Kd turned out to be 17.6 µM.

Turning to B6, the Kd was 1.55 µM.

Consider B7, for which the Kd is 1.2 µM.

Consider B8, for which the Kd is 4 µM.

Take B9: the Kd is 5.34 µM.

(Values after publication PMC5746249, “Novel linear motif filtering protocol reveals the role of the LC8 dynein light chain in the Hippo pathway” (PLoS Computational Biology, 2017).)
